Reference: PMC8748612, “Maximizing response to intratumoral immunotherapy in mice by tuning local retention” (Nature Communications, 2022)
One block for each molecule: values may come before it.

Tests used:
[1] = molecular target: Collagen I (Gibco), coated on 96-well plates (UniProt P02454); test: ELISA; Collagen I (Gibco) coated 96-well plates; LAIR-fusion proteins in PBSTA (PBS, 0.1% BSA, 0.05% Tween-20) for 4 h at room temperature; detected with HRP-conjugated polyclonal anti-6xHis
[2] = molecular target: Collagen I (Gibco), coated on 96-well plates (UniProt P02454 152-1207; P02466 86-1125); test: ELISA
Target sequence in this assay (P02454 152-1207, chain 1 of 2): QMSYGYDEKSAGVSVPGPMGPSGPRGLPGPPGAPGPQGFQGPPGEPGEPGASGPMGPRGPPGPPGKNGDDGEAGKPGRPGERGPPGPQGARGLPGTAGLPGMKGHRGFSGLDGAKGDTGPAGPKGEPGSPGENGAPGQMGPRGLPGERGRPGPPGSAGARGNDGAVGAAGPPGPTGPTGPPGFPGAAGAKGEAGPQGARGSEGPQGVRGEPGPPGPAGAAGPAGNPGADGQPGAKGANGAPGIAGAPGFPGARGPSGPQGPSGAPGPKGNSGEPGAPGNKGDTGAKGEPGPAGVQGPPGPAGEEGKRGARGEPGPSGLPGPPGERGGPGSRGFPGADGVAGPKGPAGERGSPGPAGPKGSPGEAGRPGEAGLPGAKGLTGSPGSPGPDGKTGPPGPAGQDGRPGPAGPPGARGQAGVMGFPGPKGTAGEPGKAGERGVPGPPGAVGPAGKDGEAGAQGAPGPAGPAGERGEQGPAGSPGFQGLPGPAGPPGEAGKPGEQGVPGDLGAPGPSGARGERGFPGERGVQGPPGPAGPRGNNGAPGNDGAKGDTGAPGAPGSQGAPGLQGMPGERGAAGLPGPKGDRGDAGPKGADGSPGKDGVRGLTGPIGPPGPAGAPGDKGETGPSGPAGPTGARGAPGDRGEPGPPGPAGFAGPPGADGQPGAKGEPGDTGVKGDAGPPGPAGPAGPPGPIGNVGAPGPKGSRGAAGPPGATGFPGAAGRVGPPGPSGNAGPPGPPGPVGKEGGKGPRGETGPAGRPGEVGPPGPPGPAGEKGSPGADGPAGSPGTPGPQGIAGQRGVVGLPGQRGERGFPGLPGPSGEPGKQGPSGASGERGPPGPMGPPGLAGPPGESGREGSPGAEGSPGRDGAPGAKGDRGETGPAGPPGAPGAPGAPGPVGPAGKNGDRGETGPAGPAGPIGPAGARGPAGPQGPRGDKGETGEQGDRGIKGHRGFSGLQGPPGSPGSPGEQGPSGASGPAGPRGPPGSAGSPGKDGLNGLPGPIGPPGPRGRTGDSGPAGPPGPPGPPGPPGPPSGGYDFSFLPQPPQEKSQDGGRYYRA
Target sequence in this assay (P02466 86-1125, chain 2 of 2): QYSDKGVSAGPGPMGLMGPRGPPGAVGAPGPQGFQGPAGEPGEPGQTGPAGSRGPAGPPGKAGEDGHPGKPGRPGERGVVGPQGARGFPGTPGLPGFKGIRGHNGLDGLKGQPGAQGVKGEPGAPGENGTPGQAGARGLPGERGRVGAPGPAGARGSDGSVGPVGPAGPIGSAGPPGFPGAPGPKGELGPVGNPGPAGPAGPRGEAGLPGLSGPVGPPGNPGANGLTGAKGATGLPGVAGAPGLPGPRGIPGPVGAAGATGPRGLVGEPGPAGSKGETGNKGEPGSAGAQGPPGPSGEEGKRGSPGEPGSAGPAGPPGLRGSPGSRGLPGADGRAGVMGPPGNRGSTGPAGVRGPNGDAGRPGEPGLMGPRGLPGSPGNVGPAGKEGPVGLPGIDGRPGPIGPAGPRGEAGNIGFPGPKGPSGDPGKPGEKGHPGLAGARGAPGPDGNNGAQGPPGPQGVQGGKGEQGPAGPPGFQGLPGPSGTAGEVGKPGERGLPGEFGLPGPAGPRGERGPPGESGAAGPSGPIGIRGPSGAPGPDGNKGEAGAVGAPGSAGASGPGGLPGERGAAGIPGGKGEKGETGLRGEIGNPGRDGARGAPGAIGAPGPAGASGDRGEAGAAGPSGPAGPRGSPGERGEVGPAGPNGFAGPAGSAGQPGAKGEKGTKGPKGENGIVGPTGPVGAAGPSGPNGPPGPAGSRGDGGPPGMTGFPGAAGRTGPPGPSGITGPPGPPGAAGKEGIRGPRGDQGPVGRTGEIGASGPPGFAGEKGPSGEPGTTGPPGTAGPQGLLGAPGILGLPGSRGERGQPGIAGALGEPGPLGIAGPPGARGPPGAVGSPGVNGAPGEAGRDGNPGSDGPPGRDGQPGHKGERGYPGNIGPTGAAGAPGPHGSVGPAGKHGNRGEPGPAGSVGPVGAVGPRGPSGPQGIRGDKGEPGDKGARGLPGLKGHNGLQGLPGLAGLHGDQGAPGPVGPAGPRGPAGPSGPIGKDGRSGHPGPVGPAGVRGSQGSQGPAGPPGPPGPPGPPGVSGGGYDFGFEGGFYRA

[3] = molecular target: T1, alternatively spliced extra-domain B (EIIIB) domain of fibronectin (Mus musculus (assumed; murine B16F10 …, UniProt P11276); test: not stated; Kd for EIIIB printed in the discussion; Supplementary Fig. 18b is pointed to
T1 construct: fibronectin, alternatively spliced EIIIB (extra-domain B) domain; also called FN-EIIIB

[4] = molecular target: T2, Collagen I (Gibco), coated on 96-well plates (UniProt P02454 152-1207; P02466 86-1125); test: ELISA; Collagen I (Gibco) coated 96-well plates; LAIR-fusion proteins in PBSTA (PBS, 0.1% BSA, 0.05% Tween-20) for 4 h at room temperature; detected with HRP-conjugated polyclonal anti-6xHis; settings: both partners purified
T2 construct: collagen type I, alpha-1(I) chain; collagen type I, alpha-2(I) chain; the two chains and rat as species are surmised; also called native collagen; collagen type I; source: bought: Gibco (collagen I coated 96-well plates)
T2 sequence (P02454 152-1207, chain 1 of 2): as the sequence (P02454 152-1207, chain 1 of 2) above
T2 sequence (P02466 86-1125, chain 2 of 2): as the sequence (P02466 86-1125, chain 2 of 2) above

Chain of Collagen I (Gibco), coated on 96-well plates (UniProt P02454) (P02454 152-1207, chain 1 of 2): as the sequence (P02454 152-1207, chain 1 of 2) above
Chain of Collagen I (Gibco), coated on 96-well plates (UniProt P02454) (P02466 86-1125, chain 2 of 2, further chain): as the sequence (P02466 86-1125, chain 2 of 2) above

- Kd [1]: 220 nM
Molecule: LAIR-IL2-his (from UniProt Q8BG84 22-144)

- Kd [2]: 158 nM
B1: LAIR-LAIRx-MSA^H464Q-his (other)
chain: QEGSLPDITIFPNSSLMISQGTFVTVVCSYSDKHDLYNMVRLEKDGSTFMEKSTEPYKTEDEFEIGPVNETITGHYSCIYSKGITWSERSKTLELKVIKENVIQTPAPGPTSDTSWLKTYSIYQEGSLPDITIFPNSSLMISQGTFVTVVCSYSDKHDLYNMVALAKDGSTFMEKSTEPYKTEDEFEIGPVNETITGHYSCIYSKGITWSERSKTLELKVIKENVIQTPAPGPTSDTSWLKTYSIYEAHKSEIAHRYNDLGEQHFKGLVLIAFSQYLQKCSYDEHAKLVQEVTDFAKTCVADESAANCDKSLHTLFGDKLCAIPNLRENYGELADCCTKQEPERNECFLQHKDDNPSLPPFERPEAEAMCTSFKENPTTFMGHYLHEVARRHPYFYAPELLYYAEQYNEILTQCCAEADKESCLTPKLDGVKEKALVSSVRQRMKCSSMQKFGERAFKAWAVARLSQTFPNADFAEITKLATDLTKVNKECCHGDLLECADDRAELAKYMCENQATISSKLQTCCDKPLLKKAHCLSEVEHDTMPADLPAIAADFVEDQEVCKNYAEAKDVFLGTFLYEYSRRHPDYSVSLLLRLAKKYEATLEKCCAEANPPACYGTVLAEFQPLVEEPKNLVKTNCDLYEKLGEYGFQNAILVRYTQKAPQVSTPTLVEAARNLGRVGTKCCTLPEDQRLPCVEDYLSAILNRVCLLQEKTPVSEHVTKCCSGSLVERRPCFSALTVDETYVPKEFKAETFTFHSDICTLPEKEKQIKKQTALAELVKHKPKATAEQLKTVMDDFAQFLDTCCKAADKDTCFSTEGPNLVTRCKDALA

- Kd [3]: 1 nM
B3: NJB2-MSA^H464Q-IL2 (VHH)
VHH: QVQLVETGGGLVQAGGSLRLSCAASGSTFSHNAGGWYRQAPEKQRELVAGISSDGNINYADSVKDRFTISRDNASNTMYLQMNNLKPEDTAVYVCNIRGSYGNTYYSRWGQGTQVTVSS
notes: nanobody NJB2 (15 kD); mouse serum albumin (MSA) with H464Q; interleukin-2 (IL-2); 98 kD; MSA^H464Q incorporated between the nanobody and IL-2; source: suspension HEK293, transfected, purified

- Kd [4]: > 1000 nM
B5: LAIRx-LAIRx-MSA^H464Q-IL2-his (other)
chain: QEGSLPDITIFPNSSLMISQGTFVTVVCSYSDKHDLYNMVALAKDGSTFMEKSTEPYKTEDEFEIGPVNETITGHYSCIYSKGITWSERSKTLELKVIKENVIQTPAPGPTSDTSWLKTYSIYQEGSLPDITIFPNSSLMISQGTFVTVVCSYSDKHDLYNMVALAKDGSTFMEKSTEPYKTEDEFEIGPVNETITGHYSCIYSKGITWSERSKTLELKVIKENVIQTPAPGPTSDTSWLKTYSIYEAHKSEIAHRYNDLGEQHFKGLVLIAFSQYLQKCSYDEHAKLVQEVTDFAKTCVADESAANCDKSLHTLFGDKLCAIPNLRENYGELADCCTKQEPERNECFLQHKDDNPSLPPFERPEAEAMCTSFKENPTTFMGHYLHEVARRHPYFYAPELLYYAEQYNEILTQCCAEADKESCLTPKLDGVKEKALVSSVRQRMKCSSMQKFGERAFKAWAVARLSQTFPNADFAEITKLATDLTKVNKECCHGDLLECADDRAELAKYMCENQATISSKLQTCCDKPLLKKAHCLSEVEHDTMPADLPAIAADFVEDQEVCKNYAEAKDVFLGTFLYEYSRRHPDYSVSLLLRLAKKYEATLEKCCAEANPPACYGTVLAEFQPLVEEPKNLVKTNCDLYEKLGEYGFQNAILVRYTQKAPQVSTPTLVEAARNLGRVGTKCCTLPEDQRLPCVEDYLSAILNRVCLLQEKTPVSEHVTKCCSGSLVERRPCFSALTVDETYVPKEFKAETFTFHSDICTLPEKEKQIKKQTALAELVKHKPKATAEQLKTVMDDFAQFLDTCCKAADKDTCFSTEGPNLVTRCKDALAAPTSSSTSSSTAEAQQQQQQQQQQQQHLEQLLMDLQELLSRMENYRNLKLPRMLTFKFYLPKQATELKDLQCLEDELGPLRHVLDLTQSKSFQLEDAENFISNIRVTVVKLKGSDNTFECQFDDESATVVDFLRRWIAFCQSIISTSPQ

The remaining lines, values behind:

Molecule: LAIR-LAIR-MSA^H464Q-IL2-his (from UniProt Q8BG84 22-144; Q8BG84 22-144)
- Kd [1]: 13 nM

B2: LAIR-LAIR-MSA^H464Q-his (other)
chain: QEGSLPDITIFPNSSLMISQGTFVTVVCSYSDKHDLYNMVRLEKDGSTFMEKSTEPYKTEDEFEIGPVNETITGHYSCIYSKGITWSERSKTLELKVIKENVIQTPAPGPTSDTSWLKTYSIYQEGSLPDITIFPNSSLMISQGTFVTVVCSYSDKHDLYNMVRLEKDGSTFMEKSTEPYKTEDEFEIGPVNETITGHYSCIYSKGITWSERSKTLELKVIKENVIQTPAPGPTSDTSWLKTYSIYEAHKSEIAHRYNDLGEQHFKGLVLIAFSQYLQKCSYDEHAKLVQEVTDFAKTCVADESAANCDKSLHTLFGDKLCAIPNLRENYGELADCCTKQEPERNECFLQHKDDNPSLPPFERPEAEAMCTSFKENPTTFMGHYLHEVARRHPYFYAPELLYYAEQYNEILTQCCAEADKESCLTPKLDGVKEKALVSSVRQRMKCSSMQKFGERAFKAWAVARLSQTFPNADFAEITKLATDLTKVNKECCHGDLLECADDRAELAKYMCENQATISSKLQTCCDKPLLKKAHCLSEVEHDTMPADLPAIAADFVEDQEVCKNYAEAKDVFLGTFLYEYSRRHPDYSVSLLLRLAKKYEATLEKCCAEANPPACYGTVLAEFQPLVEEPKNLVKTNCDLYEKLGEYGFQNAILVRYTQKAPQVSTPTLVEAARNLGRVGTKCCTLPEDQRLPCVEDYLSAILNRVCLLQEKTPVSEHVTKCCSGSLVERRPCFSALTVDETYVPKEFKAETFTFHSDICTLPEKEKQIKKQTALAELVKHKPKATAEQLKTVMDDFAQFLDTCCKAADKDTCFSTEGPNLVTRCKDALA
- Kd [2]: 20 nM

B4: LAIRx-IL2-his (other)
chain: QEGSLPDITIFPNSSLMISQGTFVTVVCSYSDKHDLYNMVALAKDGSTFMEKSTEPYKTEDEFEIGPVNETITGHYSCIYSKGITWSERSKTLELKVIKENVIQTPAPGPTSDTSWLKTYSIYAPTSSSTSSSTAEAQQQQQQQQQQQQHLEQLLMDLQELLSRMENYRNLKLPRMLTFKFYLPKQATELKDLQCLEDELGPLRHVLDLTQSKSFQLEDAENFISNIRVTVVKLKGSDNTFECQFDDESATVVDFLRRWIAFCQSIISTSPQ
- Kd [4]: > 1000 nM
